Experimental data: US20080214462

Target: factor X (FX) (UniProt P00742)
Sequence of UniProt P00742 (P00742 whole entry, looked up): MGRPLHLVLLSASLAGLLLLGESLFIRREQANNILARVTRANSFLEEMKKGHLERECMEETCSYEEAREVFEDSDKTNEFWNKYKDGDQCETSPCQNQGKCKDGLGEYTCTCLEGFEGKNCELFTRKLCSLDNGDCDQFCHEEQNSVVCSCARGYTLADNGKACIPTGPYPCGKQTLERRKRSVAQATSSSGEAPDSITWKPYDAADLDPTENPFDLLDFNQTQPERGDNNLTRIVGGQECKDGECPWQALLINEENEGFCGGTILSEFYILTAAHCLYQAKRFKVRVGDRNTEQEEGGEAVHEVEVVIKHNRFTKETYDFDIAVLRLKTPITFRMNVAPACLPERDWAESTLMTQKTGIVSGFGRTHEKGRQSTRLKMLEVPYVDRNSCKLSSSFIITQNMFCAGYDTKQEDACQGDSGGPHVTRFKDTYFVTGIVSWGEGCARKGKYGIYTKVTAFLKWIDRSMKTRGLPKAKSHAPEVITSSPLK

Question: How did the aPTT in FIX-depleted plasma: pdFIXa equivalent activity given for 0.5 µg/mL of FIXa protein turn out when activated plasma derived FIX (pdFIXa) was run?
Answer: The aPTT in FIX-depleted plasma: pdFIXa equivalent activity given for 0.5 µg/mL of FIXa protein was 1.1 µg/mL.
